This note sets out measurements from patent publication US7182945.

The Ki is the dissociation constant of the complex between target and ligand, obtained from inhibition or displacement. Read a high Ki as lower affinity.

Conditions in all cases: modification not given
Assay [1] addresses T1, human leukocyte cathepsin G (hCG) (human), P08311.
T1 chain: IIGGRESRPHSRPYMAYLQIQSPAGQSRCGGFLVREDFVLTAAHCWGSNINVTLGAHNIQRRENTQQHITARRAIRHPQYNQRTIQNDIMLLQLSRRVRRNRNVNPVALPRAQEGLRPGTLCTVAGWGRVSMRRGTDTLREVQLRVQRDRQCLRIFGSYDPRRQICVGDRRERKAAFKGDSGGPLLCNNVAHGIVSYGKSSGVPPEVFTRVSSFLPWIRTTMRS
Kind of assay: other enzyme inhibition.

Assay [2] has as its target T2, human leukocyte elastase (hLE) (human), P08246.
T2 chain: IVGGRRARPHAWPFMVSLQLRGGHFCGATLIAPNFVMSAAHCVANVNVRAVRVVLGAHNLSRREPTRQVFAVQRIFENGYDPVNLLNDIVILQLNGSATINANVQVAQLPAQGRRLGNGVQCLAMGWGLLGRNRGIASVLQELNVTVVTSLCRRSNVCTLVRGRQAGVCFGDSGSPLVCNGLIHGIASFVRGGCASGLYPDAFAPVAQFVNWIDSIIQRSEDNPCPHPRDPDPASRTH

Assay [3] concerns the target T2, human leukocyte elastase (hLE) (human), ….
For assay [4] the target is unchanged.
Assay [5] shares this target.
For assay [6] the target is unchanged.
For assay [7] the target is unchanged.
Assay [8] has the same target.
Assay [9] has the same target. Kind of assay: other enzyme inhibition.
The target is the same in assay [10].
Assay [11] shares this target.
Assay [12] has the same target.
The target is the same in assay [13].
For assay [14] the target is unchanged.
Assay [15] has the same target.

Where two headings read alike, the source gives them in different places. Some results are limits rather than exact numbers.

In turn, VGGSEILFEVPEVTV [CRP77-91 (peptide 9)] showed a Ki in assay [1] greater than 200 µM. EILIFWSADI [peptide 25]: the Ki in assay [2] amounted to 3 µM. In the case of EILIFWSKDI [CRP62-71 (peptide 14)], the results for the Ki in [1] and in assay [3] were 6 µM and 6.7 µM, respectively. As to FSYATKRQDNEILIF [CRP52-66 (peptide 4)], the inhibition constant (Ki) in assay [1] was greater than 200 µM. Regarding EILIFWSVDI [peptide 26], in [4], the Ki was determined as 2 µM.

TFSYGIDKSWFILIE [peptide 24] returned a Ki in assay [5] of 10 µM. With EILIFWSKDIGYSFT [CRP62-76 (peptide 6)], the Ki in assay [6] was 0.18 µM; in [1], 0.25 µM. Take ATKRQDNEILIFWSKDIGYSFTVGGSEIL [CRP55-83 (peptide 17)]: the figures for the Ki in assay [1] and in assay [7] were 5.5 µM and 7.3 µM, respectively.

For the molecule WSKDIGYSFTVGGSE [CRP67-81 (peptide 7)], the inhibition constant (Ki) in [1] was greater than 200 µM. For DILIFWSKDIGYSFT [peptide 18], the Ki in assay [8] stood at 2.2 µM; in [1], 2.6 µM. As to LHFYTELSSTRGYSI [CRP37-51 (peptide 1)], the Ki in [9] was greater than 200 µM. With KRQDNEILIFWSKDI [CRP57-71 (peptide 5)], the Ki in [10] is 85 µM; in assay [1], 180 µM. GYSFTVGGSEILFEV [CRP72-86 (peptide 8)] gave a Ki in assay [1] greater than 200 µM. Take ILFEVPEVTVAPVHI [CRP82-96 (peptide 10)]: the Ki in [1] was 150 µM; in assay [11] it was 55 µM.

EILIFWSKDIGY [CRP62-73 (peptide 13)]: the Ki in assay [1] was determined as 4 µM; in assay [12] it was 1.1 µM. For the molecule ILIFWSKDIGYSFT [CRP63-76 (peptide 11)], the Ki was 15 µM in assay [1] and 4.5 µM in assay [13].

As for EILIFWSKEIGYSFT [peptide 23], the Ki in assay [14] is 0.55 µM; in [1], 0.85 µM.

With EILIFWSKAIGYSFT [peptide 22], the Ki in [15] worked out at 3 µM; in assay [1] it was 5.5 µM.

Molecule EILIFWPKDIGYSFT [peptide 19] returned a Ki in assay [1] of 30 µM.
